One experiment concerns the target T1, HCT-15.
T1 construct: Group of unnamed glycoproteins on whole cells; also called cell surface of HCT-15 cells
The experiment is described as follows: flow cytometry titration on HCT-15 cells, geometric mean against antibody concentration [panel FACS - HCT-15]. (In general: Flow cytometry measures light scatter and fluorescence of single cells or particles in a stream.)

In another experiment the target is T2, BxPC3.
T2 construct: Group of unnamed glycoproteins on whole cells; also called cell surface of BxPC3 cells
As to the kind of experiment: flow cytometry titration on BxPC3 cells, geometric mean against antibody concentration [panel FACS - BxPC3].

Experiment [1] addresses T3, Colo205.
T3 construct: Group of unnamed glycoproteins on whole cells; also called cell surface of Colo205 cells
The experiment is described as follows: flow cytometry titration on Colo205 cells, geometric mean against antibody concentration [panel FACS - Colo205].

In a further experiment the target is T4, LS180.
T4 construct: Group of unnamed glycoproteins on whole cells; also called cell surface of LS180 cells
As to the kind of experiment: flow cytometry titration on LS180 cells, geometric mean against antibody concentration [panel FACS - LS180].

The target of experiment [2] is T3, Colo205. As to the kind of experiment: flow cytometry titration on Colo205 cells, Gm value against concentration.

Among the data in patent US10835618 (UNIVERSITY OF NOTTINGHAM, dated 2020) are Kd values, retold here.

B1: FG129 mAb (mouse FG129/29 IgG1 kappa) (antibody)
heavy: EVQLVESGGGLVQPKGSLKLSCAASGFTFNTYAMNWVRQAPGKGLEWVARIRSKSNNYATYYADSVKDRFTISRDDSQSMLYLQMNNLKKEDTAMYYCVGYGSGGNYWGQGTSVTVSSAKTTPPSVYPLAPGSAAQTNSMVTLGCLVKGYFPEPVTVTWNSGSLSSGVHTFPAVLESDLYTLSSSVTVPSSPRPSETVTCNVAHPASSTKVDKKIVPRDCGCKPCICTVPEVSSVFIFPPKPKDVLTITLTPKVTCVVVDISKDDPEVQFSWFVDDVEVHTAQTQPREEQFNSTFRSVSELPIMHQDWLNGKEFKCRVNSAAFPAPIEKTISKTKGRPKAPQVYTIPPPKEQMAKDKVSLTCMITDFFPEDITVEWQWNGQPAENYKNTQPIMNTNGSYFVYSKLNVQKSNWEAGNTFTCSVLHEGLHNHHTEKSLSHSPGK
light: DIVMTQSPSSLTVTAGEKVTMSCKSSQSLLNSGNQKNYLTWYQQKPGQPPKVLIYWASTRESGVPDRFTGSGSGTDFTLTISSVQAEDLAVYYCQNDYSSPFTFGSGTKLEIKRADAAPTVSIFPPSSEQLTSGGASVVCFLNNFYPKDINVKWKIDGSERQNGVLNSWTDQDSKDSTYSMSSTLTLTKDEYERHNSYTCEATHKTSTSPIVKSFNRNEC
notes: Murine IgG1k from a hybridoma; It recognises the glycans sialyl-di-Lewis a, sialyl-Lewis a-x and mono-sialyl-Lewis a on glycoproteins; also called mAb FG129; F129/29
With B1, the Kd – broadly, the concentration at which binding is half-saturated – with HCT-15 was 42.7 nM; in the experiment with BxPC3, 80.2 nM; in the experiment with Colo205 [1], 53.3 nM; in the experiment with LS180, 67.9 nM.

B2: FG129-scFv (scFv)
scFv: EVQLVESGGGLVQPKGSLKLSCAASGFTFNTYAMNWVRQAPGKGLEWVARIRSKSNNYATYYADSVKDRFTISRDDSQSMLYLQMNNLKKEDTAMYYCVGYGSGGNYWGQGTSVTVSGGGGSGGGGSGGGGSDIVMTQSPSSLTVTAGEKVTMSCKSSQSLLNSGNQKNYLTWYQQKPGQPPKVLIYWASTRESGVPDRFTGSGSGTDFTLTISSVQAEDLAVYYCQNDYSSPFTFGSGTKLEIKRAAAAAAHHHHHH
notes: Order is leader, VH, 3xGGGGS, VL, 6xAla, 6xHis; The leader is left out as secreted from Expi293 cells; also called scFv129
The molecule B2 showed a Kd with Colo205 [2] of 377 nM.

B3: CH129 (chimeric FG129, mouse variable regions on human IgG1/kappa constant regions) (antibody)
heavy: not shown
light: DIVMTQSPSSLTVTAGEKVTMSCKSSQSLLNSGNQKNYLTWYQQKPGQPPKVLIYWASTRESGVPDRFTGSGSGTDFTLTISSVQAEDLAVYYCQNDYSSPFTFGSGTKLEIKRTVAAPSVFIFPPSDEQLKSGTASVVCLLNNFYPREAKVQWKVDNALQSGNSQESVTEQDSKDSTYSLSSTLTLSKADYEKHKVYACEVTHQGLSSPVTKSFNRGEC
notes: Expressed in CHO-S or HEK293 cells and purified on protein G
As for B3, the Kd with HCT-15 came out at 15.3 nM; with BxPC3 it was 118 nM; with Colo205 [1], 57.3 nM; with LS180, 110 nM.
